Test results as given in the supplement of paper PMC9732359.
± gives the uncertainty stated by the source.

Experiment: protein stability index of a GFP-peptide fusion (yeast GPS) (PSI 1-4); higher = more stable; sorted into four equal gates, so the index is relative within each strain
Summary of the method: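 Each library plasmid carries Cherry plus GFP with a tiled 17-residue yeast protein peptide fused downstream, and the pooled library was carried in yeast. Mid-log cultures in leucine-free medium were sorted into four equal gates by GFP/Cherry ratio. Reads from Illumina sequencing of PCR-amplified plasmids from each gate were assigned to strains by barcodes. Per peptide, the protein stability index was computed as the summed products of gate read frequency and gate number.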

| Sequence | protein stability index (doa10∆) | protein stability index (san1∆) | protein stability index (ubr1∆) | protein stability index (pdr5∆) |
| --- | --- | --- | --- | --- |
| AIKYGYEDSGSTYKHDR [SRB4] | 3.22 ± 0.17 | 3.43 ± 0.14 | 3.15 ± 0.14 |  |
| MLKRFFPGVKGLVHDLC [SMC1] |  | 1.95 ± 0.14 | 2.42 ± 0.17 |  |
| RRANFYKENEAMLRENI [SNF12] | 3.29 ± 0.094 | 3.33 ± 0.074 | 3.39 ± 0.11 | 3.2 ± 0.14 |
| SKRVYKILSPTMYMEVY [CDC53] | 2.29 ± 0.075 | 2.15 ± 0.076 | 2.63 ± 0.092 | 2.68 ± 0.098 |
| LEFSIYHRLSNKDMIKN [CSN12] | 2.36 ± 0.096 | 2.36 ± 0.18 | 2.79 ± 0.15 | 2.91 ± 0.13 |
| ALAGGKKSKKKWSKKSM [RPS25A] | 3.45 ± 0.12 | 3.23 ± 0.16 | 3.63 ± 0.09 | 3.42 ± 0.17 |
| AQTEIKLFNKWSFEEVE [RPS5] | 3.2 ± 0.092 | 3.51 ± 0.09 | 3.22 ± 0.069 | 3.23 ± 0.11 |
| NNLEKYPFRYKTWLRNQ [RTT102] | 3.37 ± 0.077 | 3.32 ± 0.061 | 3.38 ± 0.067 | 3.39 ± 0.053 |
| EQVRKMYQEWEDETVKV [NSL1] | 3.7 ± 0.09 | 3.406 ± 0.032 | 3.58 ± 0.077 | 3.52 ± 0.083 |
| AATVHTATSSSIILSDK [SSN2] | 2.19 ± 0.043 | 2.02 ± 0.053 | 2.39 ± 0.041 | 2.29 ± 0.032 |
| QLYESGNPVNDANLLGA [COR1] | 2.53 ± 0.059 | 2.42 ± 0.069 | 2.81 ± 0.044 | 2.65 ± 0.057 |
| VLETHESGIKPYFEQKI [RPT6] | 2.33 ± 0.21 | 2.58 ± 0.065 |  | 2.29 ± 0.28 |
| YLLISKENKKRKNFKMG [IRR1] | 2.91 ± 0.097 | 3.02 ± 0.06 | 3.11 ± 0.078 | 3.24 ± 0.14 |
| WDGVIPTPAIIKPKPLW [RPO21] | 1.88 ± 0.099 | 2.41 ± 0.096 | 2.06 ± 0.12 | 2.08 ± 0.092 |
| SSKNETSKPVFSFGAAT [YLR335W/NUP2] | 3.12 ± 0.071 | 2.88 ± 0.063 | 3.06 ± 0.038 | 3.08 ± 0.07 |
| GGQRSLIALSLIMALLQ [SMC2] | 1.33 ± 0.056 | 1.73 ± 0.099 | 2.24 ± 0.036 | 1.52 ± 0.063 |
| LQGIVIWDSQKFFIMIV [POP4] | 1.7 ± 0.059 | 2.21 ± 0.076 | 2.3 ± 0.045 | 1.91 ± 0.064 |
| NHKSKDNNNGDDDDEDD [SKP1] | 3.13 ± 0.075 | 3.16 ± 0.05 | 3.14 ± 0.049 | 3.14 ± 0.069 |
| EDTNLAAIHAKRVTIQK [HHT1] | 2.88 ± 0.078 | 2.97 ± 0.059 | 2.92 ± 0.056 | 3.04 ± 0.099 |
| KGTGEESNDRINKIVEI [YGR119C/NUP57] | 3.66 ± 0.18 | 2.93 ± 0.17 | 2.89 ± 0.15 | 3.18 ± 0.16 |
| VFDLCWNSLMYALQSVK [RRP43] | 2 ± 0.062 | 2.04 ± 0.074 | 1.99 ± 0.051 | 2.02 ± 0.067 |
| SVREINLYMLVTTCVYL [SSN8] | 2.32 ± 0.057 | 2.33 ± 0.065 | 1.92 ± 0.047 | 1.67 ± 0.047 |
| LEDGDVVLFNRQPSLHR [RPO31] | 2.42 ± 0.072 | 2.47 ± 0.072 | 2.08 ± 0.051 | 2.67 ± 0.062 |
| ALKTSIQHVGMINGRKL [FAS1] | 3.21 ± 0.12 | 3.25 ± 0.067 | 3.19 ± 0.083 | 3.21 ± 0.1 |
| IQEFQGNPYIELNQDRL [SNF5] | 3.13 ± 0.059 | 3.24 ± 0.06 | 3.23 ± 0.04 | 3.15 ± 0.07 |
| RSQISEKDAKINKLMEK [SIR4] | 3.13 ± 0.087 | 3.17 ± 0.062 | 2.27 ± 0.047 | 3.12 ± 0.11 |

| Sequence | protein stability index (doa10∆) | protein stability index (san1∆) | protein stability index (ubr1∆) | protein stability index (pdr5∆) |
| --- | --- | --- | --- | --- |
| LISLKLLTFEVTQNVLG [SRB8] | 1.73 ± 0.078 | 1.28 ± 0.25 | 1.69 ± 0.084 | 1.46 ± 0.072 |
| IIKERALLSKVKWVHMI [SNF2] | 1.37 ± 0.059 | 1.34 ± 0.088 | 1.18 ± 0.042 | 1.23 ± 0.061 |
| KVNSRDDSFFNETNDKK [PRP28] | 2.82 ± 0.12 | 3.04 ± 0.13 | 2.94 ± 0.12 | 3.1 ± 0.11 |
| GASGVDDFQNFFDPKPF [SWI1] | 2.65 ± 0.065 | 2.92 ± 0.092 | 3.11 ± 0.046 | 2.68 ± 0.064 |
| SLHTKNVFGTLQRHSGI [YLR018C/POM34] | 2.56 ± 0.066 | 2.31 ± 0.15 | 2.97 ± 0.06 | 2.5 ± 0.071 |
| SLKGVDPKFRRNHKHAL [RPL29] | 1.45 ± 0.068 | 1.78 ± 0.082 | 1.78 ± 0.12 | 1.77 ± 0.077 |
| KIQQQQPGYADLEHKED [QCR6] | 2.51 ± 0.062 | 2.69 ± 0.069 | 2.69 ± 0.044 | 2.71 ± 0.071 |
| GVSIENENKVIIELPNE [SRB4] | 2.77 ± 0.1 | 3.06 ± 0.055 | 2.6 ± 0.06 | 3.02 ± 0.1 |
| GLCMLGTGKPEAIHDMF [RPN2] | 2.75 ± 0.15 | 3.19 ± 0.064 | 3.18 ± 0.075 | 3.46 ± 0.29 |
| LSLEEVEGHLFEIIDEA [FAS1] | 3.01 ± 0.11 | 3.09 ± 0.063 | 3.07 ± 0.069 | 3.29 ± 0.1 |
| NNLSSMNLDFDIEEGPI [MCD1] | 2.91 ± 0.046 | 3.21 ± 0.037 | 3.19 ± 0.032 | 3.15 ± 0.042 |
| PQNGNINNNINIPQQQQ [GAL11] | 3.32 ± 0.095 | 3.21 ± 0.082 | 2.97 ± 0.077 | 3.02 ± 0.12 |
| THNDIDSTAVALEEGLN [YJL039C/NUP192] | 2.78 ± 0.096 | 2.53 ± 0.082 | 2.56 ± 0.06 | 3.05 ± 0.047 |
| VLVSSVTEANIIKLVEG [RPS12] | 2.52 ± 0.12 | 2.67 ± 0.083 | 2.71 ± 0.072 | 2.58 ± 0.067 |
| TNVNPSKNFNVILASSL [YML103C/NUP188] | 1.82 ± 0.05 | 1.99 ± 0.08 | 1.91 ± 0.045 | 2.16 ± 0.048 |
| GKDLSPAINYTKLKNAV [QCR2] | 1.91 ± 0.064 | 2.15 ± 0.094 | 1.54 ± 0.048 | 1.64 ± 0.06 |
| VDVAIPCNNRGKHSIGL [RPS0A] | 2.81 ± 0.096 | 3.09 ± 0.067 | 3.07 ± 0.11 | 2.91 ± 0.1 |
| ILNINNSTSKNTLLQQQ [SWI1] | 2.37 ± 0.052 | 2 ± 0.069 | 2.4 ± 0.047 | 2.87 ± 0.08 |
| YTQYTNDYLEKHSVTEY [CDC53] | 2.55 ± 0.1 | 2.81 ± 0.071 | 3.13 ± 0.092 | 2.45 ± 0.075 |
| DQCVGQVGLNFELSFTG [YMR129W/POM152] | 2.94 ± 0.061 | 3.06 ± 0.046 | 2.97 ± 0.043 | 3.01 ± 0.077 |
| KTANSSSDAFEKLKVNM [YIL149C/MLP2] | 2.46 ± 0.053 | 2.95 ± 0.065 | 3.02 ± 0.051 | 2.54 ± 0.065 |
| QQQQQQHIYPSSTPGVA [GAL11] | 2.728 ± 0.022 | 2.664 ± 0.023 | 2.664 ± 0.025 | 2.78 ± 0.029 |
| DAGSNQYYVTQHDKMVD [SWI1] | 3.04 ± 0.058 | 2.95 ± 0.068 | 2.74 ± 0.045 | 2.99 ± 0.046 |
| DVEIGRMPIMLRSNKCI [RET1] | 1.23 ± 0.15 | 1.14 ± 0.27 | 1.07 ± 0.11 | 1.27 ± 0.11 |
| FSMLQMAFEASAAAAGN [BRR2] |  | 1.76 ± 0.21 |  | 2.26 ± 0.25 |
| NRAEGPEELARILQQLK [RGR1] | 3.21 ± 0.11 | 3.19 ± 0.12 | 3.62 ± 0.097 | 3.17 ± 0.19 |
